In patent publication US20150344570A1 (published 2015):

Columns and labels:
[1] = target: T1, FcγRIIa R (FcγRIIa allotype with Arg at position 131), extracellular domain with C-terminal His tag (human, UniProt P12318 34-217); assay: SPR (Biacore), antibody captured, FcγR analyte; vs GpH7-A5/GpH7-B3/GpL16-k0 = 100
T1 construct: extracellular domain; made in FreeStyle293 cells; analyte in the Biacore assay; also called FcγRIIa type R; 2aR
T1 sequence (looked up): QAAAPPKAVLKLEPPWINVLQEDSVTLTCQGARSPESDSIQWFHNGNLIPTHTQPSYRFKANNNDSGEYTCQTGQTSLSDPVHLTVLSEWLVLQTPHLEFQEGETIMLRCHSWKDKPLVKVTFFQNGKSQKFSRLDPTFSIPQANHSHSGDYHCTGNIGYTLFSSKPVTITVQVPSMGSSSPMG
Procedure: (§1) The heterodimerized antibodies He Abs in which one of the H chains was introduced with an alteration were assayed for their binding activities to each activating FcγR and inhibitory FcγR according to the method described in Example 4. […] The activating FcγRs in FIGS. 26, 27, 28, and 29 are FcγRIa, FcγRIIa (R), FcγRIIa (H), and FcγRIIIa, respectively.
(§2) Analysis of interaction between objective antibody and the FcγR was carried out using Biacore T100 (GE Healthcare). HBS-EP+ (GE Healthcare) was used as the running buffer, and the measurement temperature was set to 25° C. Chips produced by immobilizing the antigen peptide by the amine coupling method to a Series S Sencor Chip CM5 (GE Healthcare), or alternatively, chips produced by allowing preliminarily biotinylated antigen peptides to interact with and immobilize onto a Series S Sensor Chip SA (certified) (GE Healthcare) were used. Antibodies of interest were captured onto an antigen peptide-immobilized chip, and allowed to interact to each FcγR diluted with running buffer. To regenerate and repeatedly use the chip, the antibodies captured on the chip were washed off by reacting 10 mM glycine-HCl, pH 1.5.

[2] = target: T2, FcγRIIb, extracellular domain with C-terminal His tag (human, UniProt P31994 43-217); assay: as above
T2 construct: extracellular domain; made in FreeStyle293 cells; analyte in the Biacore assay; also called 2b; FcgRIIb
T2 sequence (looked up): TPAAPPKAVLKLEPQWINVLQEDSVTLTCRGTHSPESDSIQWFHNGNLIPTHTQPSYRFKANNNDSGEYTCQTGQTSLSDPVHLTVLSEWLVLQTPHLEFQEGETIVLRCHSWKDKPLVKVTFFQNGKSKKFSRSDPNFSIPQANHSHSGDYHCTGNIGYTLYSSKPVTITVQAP
Procedure: as §1, §2

B1: GpH7-A5/GpH7-B3 variant P331_08L/GpL16-k0 (antibody, human IgG1, kappa)
heavy 1: not shown
heavy 2: not shown
light: DIVMTQSPLSLPVTPGEPASISCQASESLVHSNRNTYLHWYLQKPGQSPQLLIYKVSNRFSGVPDRFSGSGSGTDFTLKISRVEAEDVGVYYCSQNTHVPPTFGQGTKVEIERTVAAPSVFIFPPSDEQLKSGTASVVCLLNNFYPREAKVQWKVDNALQSGNSQESVTEQDSKDSTYSLSSTLTLSKADYEKHKVYACEVTHQGLSSPVTKSFNRGEC
notes: heterodimerized IgG1, mutation in one H chain only; also called He Ab
[1]
  He/Con_2aR: 102 relative (HeCon Ab = 100)
[2]
  He/Con_2b: 95.7 relative (HeCon Ab = 100)

B2: GpH7-A5/GpH7-B3 variant P331_09D/GpL16-k0 (antibody, human IgG1, kappa)
heavy 1: not shown
heavy 2: not shown
light: DIVMTQSPLSLPVTPGEPASISCQASESLVHSNRNTYLHWYLQKPGQSPQLLIYKVSNRFSGVPDRFSGSGSGTDFTLKISRVEAEDVGVYYCSQNTHVPPTFGQGTKVEIERTVAAPSVFIFPPSDEQLKSGTASVVCLLNNFYPREAKVQWKVDNALQSGNSQESVTEQDSKDSTYSLSSTLTLSKADYEKHKVYACEVTHQGLSSPVTKSFNRGEC
notes: as for B1
[1]
  He/Con_2aR: 102 relative (HeCon Ab = 100)
[2]
  He/Con_2b: 94.3 relative (HeCon Ab = 100)

B3: GpH7-A5/GpH7-B3 variant P331_13S/GpL16-k0 (antibody, human IgG1, kappa)
heavy 1: not shown
heavy 2: not shown
light: DIVMTQSPLSLPVTPGEPASISCQASESLVHSNRNTYLHWYLQKPGQSPQLLIYKVSNRFSGVPDRFSGSGSGTDFTLKISRVEAEDVGVYYCSQNTHVPPTFGQGTKVEIERTVAAPSVFIFPPSDEQLKSGTASVVCLLNNFYPREAKVQWKVDNALQSGNSQESVTEQDSKDSTYSLSSTLTLSKADYEKHKVYACEVTHQGLSSPVTKSFNRGEC
notes: as for B1
[1]
  He/Con_2aR: 105 relative (HeCon Ab = 100)
[2]
  He/Con_2b: 96.8 relative (HeCon Ab = 100)

B4: GpH7-A5/GpH7-B3 variant P331_14T/GpL16-k0 (antibody, human IgG1, kappa)
heavy 1: not shown
heavy 2: not shown
light: DIVMTQSPLSLPVTPGEPASISCQASESLVHSNRNTYLHWYLQKPGQSPQLLIYKVSNRFSGVPDRFSGSGSGTDFTLKISRVEAEDVGVYYCSQNTHVPPTFGQGTKVEIERTVAAPSVFIFPPSDEQLKSGTASVVCLLNNFYPREAKVQWKVDNALQSGNSQESVTEQDSKDSTYSLSSTLTLSKADYEKHKVYACEVTHQGLSSPVTKSFNRGEC
notes: as for B1
[1]
  He/Con_2aR: 104 relative (HeCon Ab = 100)
[2]
  He/Con_2b: 99.8 relative (HeCon Ab = 100)

B5: GpH7-A5/GpH7-B3 variant P331_18N/GpL16-k0 (antibody, human IgG1, kappa)
heavy 1: not shown
heavy 2: not shown
light: DIVMTQSPLSLPVTPGEPASISCQASESLVHSNRNTYLHWYLQKPGQSPQLLIYKVSNRFSGVPDRFSGSGSGTDFTLKISRVEAEDVGVYYCSQNTHVPPTFGQGTKVEIERTVAAPSVFIFPPSDEQLKSGTASVVCLLNNFYPREAKVQWKVDNALQSGNSQESVTEQDSKDSTYSLSSTLTLSKADYEKHKVYACEVTHQGLSSPVTKSFNRGEC
notes: as for B1
[1]
  He/Con_2aR: 105 relative (HeCon Ab = 100)
[2]
  He/Con_2b: 99.2 relative (HeCon Ab = 100)

B6: GpH7-A5/GpH7-B3 variant Q295_06M/GpL16-k0 (antibody, human IgG1, kappa)
heavy 1: not shown
heavy 2: not shown
light: DIVMTQSPLSLPVTPGEPASISCQASESLVHSNRNTYLHWYLQKPGQSPQLLIYKVSNRFSGVPDRFSGSGSGTDFTLKISRVEAEDVGVYYCSQNTHVPPTFGQGTKVEIERTVAAPSVFIFPPSDEQLKSGTASVVCLLNNFYPREAKVQWKVDNALQSGNSQESVTEQDSKDSTYSLSSTLTLSKADYEKHKVYACEVTHQGLSSPVTKSFNRGEC
notes: as for B1
[1]
  He/Con_2aR: 102 relative (HeCon Ab = 100)
[2]
  He/Con_2b: 90.4 relative (HeCon Ab = 100)

B7: GpH7-A5/GpH7-B3 variant Q295_10E/GpL16-k0 (antibody, human IgG1, kappa)
heavy 1: not shown
heavy 2: not shown
light: DIVMTQSPLSLPVTPGEPASISCQASESLVHSNRNTYLHWYLQKPGQSPQLLIYKVSNRFSGVPDRFSGSGSGTDFTLKISRVEAEDVGVYYCSQNTHVPPTFGQGTKVEIERTVAAPSVFIFPPSDEQLKSGTASVVCLLNNFYPREAKVQWKVDNALQSGNSQESVTEQDSKDSTYSLSSTLTLSKADYEKHKVYACEVTHQGLSSPVTKSFNRGEC
notes: as for B1
[1]
  He/Con_2aR: 102 relative (HeCon Ab = 100)
[2]
  He/Con_2b: 94.8 relative (HeCon Ab = 100)

B8: GpH7-A5/GpH7-B3 variant S239_14T/GpL16-k0 (antibody, human IgG1, kappa)
heavy 1: not shown
heavy 2: not shown
light: DIVMTQSPLSLPVTPGEPASISCQASESLVHSNRNTYLHWYLQKPGQSPQLLIYKVSNRFSGVPDRFSGSGSGTDFTLKISRVEAEDVGVYYCSQNTHVPPTFGQGTKVEIERTVAAPSVFIFPPSDEQLKSGTASVVCLLNNFYPREAKVQWKVDNALQSGNSQESVTEQDSKDSTYSLSSTLTLSKADYEKHKVYACEVTHQGLSSPVTKSFNRGEC
notes: as for B1
[1]
  He/Con_2aR: 103 relative (HeCon Ab = 100)
[2]
  He/Con_2b: 97.3 relative (HeCon Ab = 100)

B9: GpH7-A5/GpH7-B3 variant S324_04F/GpL16-k0 (antibody, human IgG1, kappa)
heavy 1: not shown
heavy 2: not shown
light: DIVMTQSPLSLPVTPGEPASISCQASESLVHSNRNTYLHWYLQKPGQSPQLLIYKVSNRFSGVPDRFSGSGSGTDFTLKISRVEAEDVGVYYCSQNTHVPPTFGQGTKVEIERTVAAPSVFIFPPSDEQLKSGTASVVCLLNNFYPREAKVQWKVDNALQSGNSQESVTEQDSKDSTYSLSSTLTLSKADYEKHKVYACEVTHQGLSSPVTKSFNRGEC
notes: as for B1
[1]
  He/Con_2aR: 104 relative (HeCon Ab = 100)
[2]
  He/Con_2b: 89.1 relative (HeCon Ab = 100)
